Reference: article PMC8479633

How the values were obtained:
[1] = biological target: SMAD2 linker-MH2 construct, non-phosphorylated (S2LMH2); assay: SAXS with ensemble optimisation
[2] = biological target: phosphomimetic full-length SMAD2 (S2FLEEE) (UniProt Q15796); assay: SAXS with ensemble optimisation

phosphomimetic full-length SMAD2 (S2FLEEE) (from UniProt Q15796 1-467) (natural protein), sequence (Q15796 whole entry): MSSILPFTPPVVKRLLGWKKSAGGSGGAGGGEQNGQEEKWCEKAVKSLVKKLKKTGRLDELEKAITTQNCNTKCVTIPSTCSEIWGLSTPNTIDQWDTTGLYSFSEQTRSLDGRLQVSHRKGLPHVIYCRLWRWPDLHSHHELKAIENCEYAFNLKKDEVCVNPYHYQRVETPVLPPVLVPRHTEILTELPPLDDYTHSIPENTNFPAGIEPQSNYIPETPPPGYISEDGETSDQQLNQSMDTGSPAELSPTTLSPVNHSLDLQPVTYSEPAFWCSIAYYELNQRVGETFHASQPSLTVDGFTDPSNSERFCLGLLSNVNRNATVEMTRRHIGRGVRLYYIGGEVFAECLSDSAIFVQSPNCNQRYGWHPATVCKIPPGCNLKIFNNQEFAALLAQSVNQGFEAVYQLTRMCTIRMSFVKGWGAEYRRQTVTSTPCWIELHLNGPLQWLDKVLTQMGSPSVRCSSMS
SMAD2 linker-MH2 construct, non-phosphorylated (S2LMH2) (domain or fragment), sequence (Q15796 269-467): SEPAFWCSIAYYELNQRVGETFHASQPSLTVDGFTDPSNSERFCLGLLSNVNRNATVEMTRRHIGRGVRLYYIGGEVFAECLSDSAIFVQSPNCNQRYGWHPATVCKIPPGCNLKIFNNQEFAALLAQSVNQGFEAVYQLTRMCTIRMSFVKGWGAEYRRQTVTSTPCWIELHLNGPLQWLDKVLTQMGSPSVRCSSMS

Substance	percent of the population as dimer [1]	percent of the population as dimer [2]	percent of the population as trimer [2]
SMAD2 linker-MH2 construct, non-phosphorylated (S2LMH2) (domain or fragment)	25%		
phosphomimetic full-length SMAD2 (S2FLEEE) (from UniProt Q15796 1-467) (natural protein)		36%	44.8%
